# Molecular target: the molecule itself
# Test: dynamic light scattering; 5–83 µM GLP-1(7-37); 25 °C; 25 mM Tris-HCl, 140 mM NaCl, 4.9 mM KCl, 2.5 mM CaCl2, 1 mM MgCl2, pH 7.4; degree of multimerization MWRh/MWm
protein,measurement,value
"HAEGTFTSDVSSYLEGQAAKEFIAWLVKGRG (peptide, UniProt P01275 98-128, looked up, also called GLP-1(7-37); GLP-1) [glucagon-like peptide 1, residues 7-37]",stoichiometry N,> 210
